From patent EP4650366A1 (Beijing Tuo Jie Biopharmaceutical Co. Ltd., dated 2025)
Like-named read-outs stand apart in the source and are kept apart here.

T1: human TGFβ2 expressed by transfected HEK293E cells (human, UniProt P61812 21-414)
T1 construct: whole, on cells
T1 sequence (looked up): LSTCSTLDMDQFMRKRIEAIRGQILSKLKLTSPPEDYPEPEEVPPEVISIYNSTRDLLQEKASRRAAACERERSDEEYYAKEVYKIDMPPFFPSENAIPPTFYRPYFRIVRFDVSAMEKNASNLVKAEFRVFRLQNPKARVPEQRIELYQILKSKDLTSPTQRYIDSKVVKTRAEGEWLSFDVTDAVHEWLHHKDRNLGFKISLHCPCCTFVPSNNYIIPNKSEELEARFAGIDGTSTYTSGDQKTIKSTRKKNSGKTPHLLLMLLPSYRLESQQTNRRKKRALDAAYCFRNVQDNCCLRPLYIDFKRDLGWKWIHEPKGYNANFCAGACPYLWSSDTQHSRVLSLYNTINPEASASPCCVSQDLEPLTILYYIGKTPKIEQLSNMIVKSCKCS

T2: human GARP-TGFβ2 complex expressed by transfected HEK293E cells (human, UniProt P61812 21-414; Q14392 20-662)
T2 construct: whole, on cells; also called TGFβ2-GARP complex; TGFβ2 + GARP
T2 sequence (looked up) 1: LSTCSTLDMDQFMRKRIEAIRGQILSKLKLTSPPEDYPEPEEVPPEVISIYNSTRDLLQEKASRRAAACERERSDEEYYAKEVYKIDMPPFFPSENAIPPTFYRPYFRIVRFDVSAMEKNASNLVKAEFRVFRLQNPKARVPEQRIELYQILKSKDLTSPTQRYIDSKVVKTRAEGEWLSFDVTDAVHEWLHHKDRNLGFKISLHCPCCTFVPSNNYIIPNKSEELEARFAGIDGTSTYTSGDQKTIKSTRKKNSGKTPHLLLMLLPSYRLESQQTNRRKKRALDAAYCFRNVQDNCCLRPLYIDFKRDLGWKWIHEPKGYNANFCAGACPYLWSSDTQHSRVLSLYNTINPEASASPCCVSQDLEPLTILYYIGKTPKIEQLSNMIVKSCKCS
T2 sequence (looked up) 2: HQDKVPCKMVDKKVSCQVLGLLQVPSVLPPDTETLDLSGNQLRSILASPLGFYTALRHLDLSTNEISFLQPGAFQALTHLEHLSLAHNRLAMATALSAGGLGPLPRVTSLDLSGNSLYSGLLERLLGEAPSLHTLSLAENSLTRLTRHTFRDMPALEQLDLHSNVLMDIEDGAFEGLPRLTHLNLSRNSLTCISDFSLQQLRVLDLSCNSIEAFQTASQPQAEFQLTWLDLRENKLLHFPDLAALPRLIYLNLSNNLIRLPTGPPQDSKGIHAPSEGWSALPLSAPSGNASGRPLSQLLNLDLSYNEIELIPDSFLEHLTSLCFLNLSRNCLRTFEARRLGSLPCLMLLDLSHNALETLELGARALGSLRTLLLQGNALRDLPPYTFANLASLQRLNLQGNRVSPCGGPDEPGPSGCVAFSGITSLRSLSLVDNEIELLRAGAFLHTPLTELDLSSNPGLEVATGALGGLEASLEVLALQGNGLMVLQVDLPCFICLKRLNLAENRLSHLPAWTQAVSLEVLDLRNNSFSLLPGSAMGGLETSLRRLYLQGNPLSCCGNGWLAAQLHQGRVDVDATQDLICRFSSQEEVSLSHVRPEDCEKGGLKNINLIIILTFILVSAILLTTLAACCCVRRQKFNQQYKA


Assays:
Human GARP-TGFβ1 complex [1] = molecular target: T3, Human GARP-TGFβ1 complex (human, UniProt Q14392 20-627; P01137 30-390); assay: SPR (Biacore T200), method of Example 4
T3 construct: Soluble recombinant complex, co-expressed in ExpiCHO cells and purified; also called human GARP/TGFβ1 protein

Mouse GARP-TGFβ1 complex = molecular target: T4, Mouse GARP-TGFβ1 complex (mouse, UniProt G3XA59 18-628; P04202 30-390); assay: SPR (Biacore T200), method of Example 4
T4 construct: Soluble recombinant complex, co-expressed in ExpiCHO cells and purified; also called Murine GARP-TGFβ1 complex

Human GARP-TGFβ1 complex [2] = molecular target: T3, Human GARP-TGFβ1 complex; assay: SPR (Biacore T200), method of Example 4; remark: listed apart in the source
Human GARP-TGFβ1 complex [3] = molecular target: T3, Human GARP-TGFβ1 complex; assay: SPR, method of Example 4; reference H27; antigen not given, taken as the human GARP-TGFβ1 complex as in Table 11
[4] = molecular target: T5, human TGFβ1 expressed by transfected cells (human, UniProt P01137 30-390); assay: flow cytometry on transfected HEK293E cells, 10 nM antibody
T5 construct: whole, on cells; also called human pro-TGFβ1

[5] = molecular target: T6, mouse TGFβ1 expressed by transfected cells (mouse, UniProt P04202 30-390); assay: as above
T6 construct: whole, on cells; also called mTGFβ1; murine TGFβ1

[6] = molecular target: T7, human GARP-TGFβ1 complex expressed by transfected cells (human, UniProt P01137 30-390; Q14392 20-662); assay: as above
T7 construct: whole, on cells; also called TGFβ1-GARP complex; TGFβ1 + GARP

[7] = molecular target: T8, mouse GARP-TGFβ1 complex expressed by transfected cells (mouse, UniProt P04202 30-390; G3XA59 18-663); assay: as above
T8 construct: whole, on cells; also called mTGFβ1-mGARP complex; mTGFβ1 + mGARP

[8] = molecular target: T1, human TGFβ2 expressed by transfected …; assay: flow cytometry on transfected HEK293E cells, FITC anti-human Fc
[9] = molecular target: T2, human GARP-TGFβ2 complex expressed by …; assay: as above

T3 sequence (P01137 30-390 limits assumed, one chain of several): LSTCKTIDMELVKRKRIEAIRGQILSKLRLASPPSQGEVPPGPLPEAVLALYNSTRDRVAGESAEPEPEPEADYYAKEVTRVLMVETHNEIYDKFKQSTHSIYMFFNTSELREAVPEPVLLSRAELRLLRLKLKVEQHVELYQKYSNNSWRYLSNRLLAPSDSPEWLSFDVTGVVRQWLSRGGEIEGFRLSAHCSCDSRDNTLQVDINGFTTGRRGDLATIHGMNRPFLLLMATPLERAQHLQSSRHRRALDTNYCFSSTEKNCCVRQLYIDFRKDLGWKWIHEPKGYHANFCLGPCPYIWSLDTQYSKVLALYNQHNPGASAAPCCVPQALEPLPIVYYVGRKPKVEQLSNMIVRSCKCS
T4 sequence (G3XA59 other isoform, or with tags, fused parts or gaps limits assumed, chain 1 of 2): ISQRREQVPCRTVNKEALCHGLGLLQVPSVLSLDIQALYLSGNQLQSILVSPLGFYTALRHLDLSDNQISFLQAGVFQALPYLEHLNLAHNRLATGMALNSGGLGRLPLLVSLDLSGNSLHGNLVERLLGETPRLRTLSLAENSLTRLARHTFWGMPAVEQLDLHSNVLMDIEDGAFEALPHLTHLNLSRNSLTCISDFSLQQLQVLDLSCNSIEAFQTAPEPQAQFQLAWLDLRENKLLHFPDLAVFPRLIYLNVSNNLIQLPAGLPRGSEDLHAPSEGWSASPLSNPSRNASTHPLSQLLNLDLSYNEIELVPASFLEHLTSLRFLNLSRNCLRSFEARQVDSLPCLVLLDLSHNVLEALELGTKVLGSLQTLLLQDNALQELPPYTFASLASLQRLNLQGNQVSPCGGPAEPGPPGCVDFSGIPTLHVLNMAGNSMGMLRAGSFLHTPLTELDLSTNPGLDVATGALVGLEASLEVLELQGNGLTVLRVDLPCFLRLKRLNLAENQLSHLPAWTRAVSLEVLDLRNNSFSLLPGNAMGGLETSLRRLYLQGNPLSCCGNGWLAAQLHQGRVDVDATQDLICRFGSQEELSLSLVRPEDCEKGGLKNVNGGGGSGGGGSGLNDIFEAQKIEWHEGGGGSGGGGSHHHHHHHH
T4 sequence (P04202 30-390 limits assumed, chain 2 of 2): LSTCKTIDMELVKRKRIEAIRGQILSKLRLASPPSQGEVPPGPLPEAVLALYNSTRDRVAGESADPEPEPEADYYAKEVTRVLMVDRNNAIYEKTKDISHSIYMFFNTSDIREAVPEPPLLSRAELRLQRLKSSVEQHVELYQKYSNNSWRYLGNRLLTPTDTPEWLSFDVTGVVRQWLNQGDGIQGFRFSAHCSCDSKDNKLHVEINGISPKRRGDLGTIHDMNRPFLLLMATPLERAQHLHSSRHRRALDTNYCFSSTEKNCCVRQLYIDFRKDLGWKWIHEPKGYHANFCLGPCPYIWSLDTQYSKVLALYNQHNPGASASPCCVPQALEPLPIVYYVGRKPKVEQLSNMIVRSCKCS
T7 sequence (P01137 30-390, one chain of several): as the sequence (P01137 30-390 limits assumed, one chain of several) above
T5 sequence (P01137 30-390): as the sequence (P01137 30-390 limits assumed, one chain of several) above
T6 sequence (P04202 30-390): as the sequence (P04202 30-390 limits assumed, chain 2 of 2) above
T8 sequence (P04202 30-390, chain 1 of 2): as the sequence (P04202 30-390 limits assumed, chain 2 of 2) above
T8 sequence (G3XA59 18-663, chain 2 of 2): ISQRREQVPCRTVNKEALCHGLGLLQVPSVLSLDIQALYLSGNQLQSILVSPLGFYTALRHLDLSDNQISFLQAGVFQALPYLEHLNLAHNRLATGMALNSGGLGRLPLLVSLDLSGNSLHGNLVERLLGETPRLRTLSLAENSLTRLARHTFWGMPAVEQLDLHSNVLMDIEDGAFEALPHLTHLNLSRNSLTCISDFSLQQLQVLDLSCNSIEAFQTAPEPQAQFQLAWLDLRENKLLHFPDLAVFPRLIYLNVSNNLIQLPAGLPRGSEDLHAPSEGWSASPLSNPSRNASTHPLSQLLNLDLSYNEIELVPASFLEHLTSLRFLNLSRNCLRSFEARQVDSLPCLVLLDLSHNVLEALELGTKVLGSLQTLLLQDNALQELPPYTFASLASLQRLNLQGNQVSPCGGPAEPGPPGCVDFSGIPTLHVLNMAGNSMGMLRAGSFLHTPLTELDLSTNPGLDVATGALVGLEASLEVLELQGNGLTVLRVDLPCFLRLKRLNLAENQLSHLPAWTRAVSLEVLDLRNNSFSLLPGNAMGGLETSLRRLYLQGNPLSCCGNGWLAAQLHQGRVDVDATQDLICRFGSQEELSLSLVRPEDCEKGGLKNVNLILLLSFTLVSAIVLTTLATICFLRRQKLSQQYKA

Row | Kd (Human GARP-TGFβ1 complex [1]) | koff (Human GARP-TGFβ1 complex [1]) | kon (Human GARP-TGFβ1 complex [1]) | Kd (Mouse GARP-TGFβ1 complex) | koff (Mouse GARP-TGFβ1 complex) | kon (Mouse GARP-TGFβ1 complex) | Kd (Human GARP-TGFβ1 complex [2]) | koff (Human GARP-TGFβ1 complex [2]) | kon (Human GARP-TGFβ1 complex [2]) | fold affinity over H27 (Human GARP-TGFβ1 complex [3]) | binding result [4] | binding result [5] | binding result [6] | binding result [7] | binding result [8] | binding result [9] | Binder
1 | 332 pM | 0.000138 s⁻¹ | 417000 M⁻¹ s⁻¹ | 226 pM | 0.000106 s⁻¹ | 469000 M⁻¹ s⁻¹ | – | – | – | – | – | – | – | – | – | – | Ab6 (antibody, V domains shown) VH: QVQLVESGGGVVQPGRSLRLSCAASGFAFSSYGMHWVRQAPGKGLEWVAVISYDGNNKYYADSVKGRFTISRDNSKNTLYLQMNSLRAEDTAVYYCARDLLVRFLEWSHKYGMDVWGQGTTVTVSS VL: not shown
2 | – | – | – | – | – | – | 135 pM | 5.24e-05 s⁻¹ | 387000 M⁻¹ s⁻¹ | 5 fold | – | – | – | – | – | – | SL2-2 (antibody, human IgG4 S228P, kappa, V domains shown, Human IgG4-S228P/kappa, H27 heavy chain) VH: not shown VL: DIQMTQSPSSLSASVGDRVTITCRASQFISDYLNWYQQKPGKAPKLLIYTASYLDSGVPSRFSGSGSGTDFTLTISSLQPEDFATYYCQQSYSTPLTFGGGTKLEIKR
3 | – | – | – | – | – | – | 475 pM | 8.54e-05 s⁻¹ | 180000 M⁻¹ s⁻¹ | 5 fold | – | – | – | – | – | – | SL2-9 (antibody, human IgG4 S228P, kappa, V domains shown, Human IgG4-S228P/kappa, H27 heavy chain) VH: not shown VL: DIQMTQSPSSLSASVGDRVTITCRASQFISPYLNWYQQKPGKAPKLLIYAASELESGVPSRFSGSGSGTDFTLTISSLQPEDFATYYCQQSYSTPLTFGGGTKLEIKR
4 | – | – | – | – | – | – | 266 pM | 8.51e-05 s⁻¹ | 320000 M⁻¹ s⁻¹ | 5 fold | – | – | – | – | – | – | SL2-12 (antibody, human IgG4 S228P, kappa, V domains shown, Human IgG4-S228P/kappa, H27 heavy chain) VH: not shown VL: DIQMTQSPSSLSASVGDRVTITCRASQYISDYLNWYQQKPGKAPKLLIYSASYLDSGVPSRFSGSGSGTDFTLTISSLQPEDFATYYCQQSYSTPLTFGGGTKLEIKR
5 | 254 pM | 9.5e-05 s⁻¹ | 375000 M⁻¹ s⁻¹ | 228 pM | 8.86e-05 s⁻¹ | 389000 M⁻¹ s⁻¹ | 161 pM | 6.08e-05 s⁻¹ | 379000 M⁻¹ s⁻¹ | 5 fold | binds | binds | binds | binds | no binding (tested: 10 nM) | no binding (tested: 10 nM) | SL2-22 (antibody, human IgG4 S228P, kappa, V domains shown, Human IgG4-S228P/kappa, H27 heavy chain; also called TGFβ1 monoclonal antibody SL2-22; anti-human TGFβ1 antibody SL2-22) VH: not shown VL: DIQMTQSPSSLSASVGDRVTITCRASQSISDYLNWYQQKPGKAPKLLIYTASYLDSGVPSRFSGSGSGTDFTLTISSLQPEDFATYYCQQSYSTPLTFGGGTKLEIKR
6 | – | – | – | – | – | – | 362 pM | 6.95e-05 s⁻¹ | 192000 M⁻¹ s⁻¹ | 5 fold | – | – | – | – | – | – | SL2-19 (antibody, human IgG4 S228P, kappa, V domains shown, Human IgG4-S228P/kappa, H27 heavy chain) VH: not shown VL: DIQMTQSPSSLSASVGDRVTITCRASQAISPYLNWYQQKPGKAPKLLIYAASELESGVPSRFSGSGSGTDFTLTISSLQPEDFATYYCQQSYSTPLTFGGGTKLEIKR
